Data as given in patent publication US7655420B2, “Methods to increase or decrease bone density” (Celltech R & D, Inc., priority 2002, dated 2010).
Entries after “also recorded” stand apart in the source; their conditions may differ.

Experiments:
hMSC cells [1] = experiment: CellTiterGlo viability assay of hMSC cells; format: cell-based, human; details: Osteoblast-Inducing media, increasing amounts of sclerostin, 1 week, versus control
Procedure: (§1) Human mesenchymal (hMSC) cells were plated in Osteoblast-inducing media (Biowhittaker's MSCGM medium supplemented with 100 nM dexamethasone, 50 μg/ml ascorbic acid, and 10 mM β-glycerophosphate) at a density of 10,000 cells/cm^2 in 96-well dishes.
For cell viability assays, cells were treated with a partially purified preparation of bacculovirus-expressed human sclerostin (0 to 20 μg/ml) or an equal volume of a protein preparation purified from Sf9 conditioned media (control) for 1 week. Sclerostin and control were refreshed upon media change. Cells were then lysed and processed using Promega's CellTiterGlo Luminescence Viability Assay.

[2] = test system: mineralization (calcium deposition) in hMSC cells; experiment: mineralization (calcium deposition) in hMSC cells; format: cell-based, human; details: for mineralization (calcium deposition), increasing concentrations: hMSC cells, Osteoblast-Inducing media, protein added at 8 days, another 13 days
Procedure: FIG. 12B illustrates that human sclerostin decreases mineralization (calcium deposition) in hMSC cells in a dose-dependent manner. hMSC cells were plated in Osteoblast-Inducing media. Partially-purified sclerostin protein or proteins purified from Sf9 conditioned media (control) were added the next day. Cultures were maintained for 8 days, treated with sclerostin or control proteins and maintained for another 13 days before testing for mineralization. As illustrated, increasing concentrations of sclerostin give rise to diminished mineralization.
(§2) hMSC cells were plated in 96-well tissue culture dishes at a density of 10,000 cells/cm^2 in Osteoblast-Inducing medium. Partially purified preparations of baculovirus-expressed sclerostin protein were prepared in sterile PBS using NAP-5 columns prior to use. Human sclerostin protein (0 to 30 μg/ml) or an equal volume of Sf9 conditioned media (Control) was added to cultures of hMSC cells at various times after plating (1 day, 8 days, 15 days, or 21 days). The effects of sclerostin on osteoblastic differentiation were assessed by measuring alkaline phosphatase activity (ALP, determined in cell layers using DEAA buffer (Pierce) containing 0.5% NP-40 and 10 mM p-nitrophenylphosphate), synthesis of collagen type I (Prolagen C ELISA), and calcium deposition for mineralization (colorimetric assay of acid lysates of cell layers, Sigma).

apoptosis genes = experiment: Apoptosis Gene Array of hMSC treated with sclerostin; format: cell-based, human
Procedure: In another study, hMSC were treated with vehicle or sclerostin for 6 hrs or 48 hrs. Cells were harvested, RNA prepared and used for the analysis of a commercially available Apoptosis Gene Array (SuperArray, Bethesda, Md.). To further investigate the effects of sclerostin on the apoptosis of hMSC, RNA was harvested from vehicle and sclerostin-treated cells and used the RNA to probe a cDNA expression array containing apoptosis genes. The results for vehicle and sclerostin-treated samples were compared and data (corrected for background) were expressed as a ratio of sclerostin to vehicle.

hMSC cells [3] = experiment: apoptosis of hMSC cells by histone-associated DNA fragmentation ELISA; format: cell-based, human; details: increasing amounts of sclerostin, 24 hrs
Procedure: as §1
(§3) For apoptosis assays, cells were treated with sclerostin or commercially available preparations of the BMP antagonists noggin, chordin, gremlin or twisted gastrulation (Tsg) for 24 hours prior to assay for caspase activity. In some experiments, cells were treated for various times with a partially purified preparation of baculovirus-expressed human sclerostin (0 to 30 μg/ml) or an equal volume of a protein preparation purified from Sf9 conditioned media (control) in the absence or presence of Calbiochem's caspase inhibitors. Cells were harvested and processed for apoptosis assays using the Homogeneous Caspase ELISA (Roche) or Cell Death (Histone-Associated DNA Fragmentation, Roche).

[4] = test system: caspase activity in hMSC cells; experiment: apoptosis of hMSC cells by caspase activity (Homogeneous Caspase ELISA); format: cell-based, human; details: for time after treatment for which caspase activity remained elevated: hMSC cells treated with sclerostin; for caspase activity: hMSC in osteoblast-inducing media, 20 μg/ml sclerostin or other protein, 24 hours
Procedure: as §1, §3

osteoblastic markers = experiment: RT-PCR of osteoblastic markers in differentiating hMSC cells treated with sclerostin; format: cell-based, human; details: sclerostin 10 μg/ml, 40 hrs
Procedure: FIG. 14 illustrates that human sclerostin protein decreases expression of osteoblastic markers in cultures of differentiating hMSC cells. hMSC cells were plated in Osteoblast-Inducing media. After 3 days, partially purified sclerostin protein (10 μg/ml) or proteins purified from Sf9 conditioned media (control) were added. Cells were harvested after 40 hrs and RNA was prepared for RT-PCR analyses of osteoblastic markets.
To determine the effect of sclerostin protein on the expression of osteoblastic markers in cultures of differentiating hMSC cells, RNA was isolated after a 40-hr treatment and analyzed by RT-PCR (FIG. 14).

hMSC cells [5] = experiment: apoptosis of hMSC cells by TUNEL staining; format: cell-based, human; details: Sclerostin 20 μg/ml, 24 hrs
Procedure: as §1
For apoptosis determination by TUNEL staining, cells were treated for 24 hrs with a partially purified preparation of bacculovirus-expressed human sclerostin (20 μg/ml) or an equal volume of a protein preparation purified from Sf9 conditioned media (control). Cells were fixed with paraformaldehyde and processed using Roche's In Situ Cell Death Detection kit.

[6] = test system: alkaline phosphatase (ALP) activity in hMSC cells; experiment: alkaline phosphatase activity in differentiating hMSC cells; format: cell-based, human; details: BMP-6 500 ng/ml plus increasing concentrations of sclerostin-Flag protein
[7] = test system: alkaline phosphatase activity in primary human osteoblasts; experiment: histochemical staining for alkaline phosphatase in primary human osteoblasts; format: cell-based; details: primary human osteoblasts in Inducing media, Sclerostin 20 μg/ml, 7 days
Procedure: Primary human osteoblasts were grown in regular growth media or in Inducing media (to promote differentiation) and then treated with Sclerostin (20 μg/ml) or Control (protein purified from Sf9 conditioned media) for 7 days prior to histochemical staining for alkaline phosphatase activity. Osteoblasts grown in regular growth media expressed low, basal levels of ALP (“No Treatment,” far right panel).

[8] = test system: alkaline phosphatase (ALP) activity in hMSC cells; experiment: alkaline phosphatase activity in differentiating hMSC cells; format: cell-based, human; details: for basal alkaline phosphatase activity, increasing concentrations (dose-dependent) / ALP activity: hMSC cells, Osteoblast-Inducing media; for ALP activity: 7 days
Procedure: as §2

[9] = hMSC cells treated with about 10 to 15 μg/ml of the protein, p<0.001 to control
[10] = hMSC, 6 hrs, Anti-apoptotic gene
[11] = hMSC, 48 hrs, Anti-apoptotic gene
[12] = hMSC, 48 hrs, Proapoptotic gene

B1: sclerostin: partially purified baculovirus-expressed human sclerostin protein, SOST gene product (SEQ ID NO:3); also made with a FLAG tag (protein, listed as Homo sapiens)
chain: MQLPLALCLVCLLVHTAFRVVEGQGWQAFKNDATEIIPELGEYPEPPPELENNKTMNRAENGGRPPHHPFETKDVSEYSCRELHFTRYVTDGPCRSAKPVTELVCSGQCGPARLLPNAIGRGKWWRPSGPDFRCIPDRYRAQRVQLLCPGGEAPRARKVRLVASCKCKRLTRFHNQSELKDFGTEAARPQKGRKPRPRARSAKANQAELENAY
modifications: optional FLAG tag
viability of hMSC cells (hMSC cells [1]): significantly reduced; also recorded: decreases the viability
decrease of mineral deposition [2, 9]: about 50%
mineralization (calcium deposition), increasing concentrations ([2]; listed as Sclerostin): decreased
mineralization (calcium deposition), increasing concentrations ([2]; listed as human sclerostin): decreases
increase in the expression of apoptosis-associated genes and genes involved in cell survival (apoptosis genes; hMSC treated for 6 hrs with sclerostin): 2 to 4 fold
Ratio of sclerostin to vehicle, Bruce (apoptosis genes; [10]): 1.45 ± 0.75
Ratio of sclerostin to vehicle, Survivin, IAP2 (apoptosis genes; [10]): 1.32 ± 0.48
Ratio of sclerostin to vehicle, XIAP (apoptosis genes; [10]): 2.01 ± 0.64
Ratio of sclerostin to vehicle, BAX (apoptosis genes; hMSC, 6 hrs, Proapoptotic gene): 1.53 ± 0.2
Ratio of sclerostin to vehicle, Bcl10 (apoptosis genes; hMSC, 6 hrs, Proapoptotic gene): 4.09 ± 2.13
Ratio of sclerostin to vehicle, Caspase 3 (apoptosis genes; hMSC, 6 hrs, Proapoptotic gene): 2.46 ± 0.69
Ratio of sclerostin to vehicle, Caspase 4 (apoptosis genes; hMSC, 6 hrs, Proapoptotic gene): 1.83 ± 1.12
Ratio of sclerostin to vehicle, Caspase 7 (apoptosis genes; hMSC, 6 hrs, Proapoptotic gene): 1.76 ± 0.18
Ratio of sclerostin to vehicle, Hrk (apoptosis genes; hMSC, 6 hrs, Proapoptotic gene): 1.59 ± 0.39
Ratio of sclerostin to vehicle, Myd88 (apoptosis genes; hMSC, 6 hrs, Proapoptotic gene): 1.4 ± 0.31
Ratio of sclerostin to vehicle, Casper (apoptosis genes; [11]): 2.68 ± 0.28
Ratio of sclerostin to vehicle, I-TRAF (apoptosis genes; [11]): 2.05 ± 0.54
Ratio of sclerostin to vehicle, Mdm2 (apoptosis genes; [11]): 1.66 ± 0.34
Ratio of sclerostin to vehicle, Bak1 (apoptosis genes; [12]): 2.36 ± 0.74
Ratio of sclerostin to vehicle, Bax (apoptosis genes; [12]): 1.64 ± 0.3
Ratio of sclerostin to vehicle, Bcl10 (apoptosis genes; [12]): 1.84 ± 0.76
Ratio of sclerostin to vehicle, Blk (apoptosis genes; [12]): 1.83 ± 0.12
Ratio of sclerostin to vehicle, Myd88 (apoptosis genes; [12]): 2.64 ± 1.3
amounts of histone-DNA fragments (hMSC cells [3]): significantly elevated; also recorded: greater amounts of histone-DNA fragments
time after treatment for which caspase activity remained elevated ([4]; listed as Sclerostin): up to 72 hrs
time after treatment for which caspase activity remained elevated ([4]; listed as human sclerostin): 72 h
caspase activity, increasing amounts (dose-dependent) ([4]; hMSC cells, 24 hrs): significantly elevated; also recorded: increased caspase activity
caspase activity [4]: significantly increased
caspase activity ([4]; listed as Sclerostin): increased
RNA levels for osteoblast phenotypic markers PTHr, Type I collagen, BMP-2 and BMP-6 (osteoblastic markers): significantly reduced
RNA levels of markers for adipocytes (PPARγ2) or undifferentiated mesenchymal cells (endoglin) (osteoblastic markers): not affected
Tunel staining for apoptotic nuclei (hMSC cells [5]): Increased staining for apoptotic nuclei
Tunel staining for apoptotic nuclei (hMSC cells [5]; listed as human sclerostin): undergo apoptosis
BMP-6 induced alkaline phosphatase activity [6]: reduced; also recorded: decreased
amount of ALP expressed (histochemical stain) [7]: marked decrease
decrease of alkaline phosphatase activity [8, 9]: about 50%
basal alkaline phosphatase activity, increasing concentrations (dose-dependent) [8]: significantly reduced; also recorded: decreased
ALP activity ([8]; protein at 1 μg/ml): decreased
ALP activity ([8]; protein at 5 μg/ml): decreased
basal alkaline phosphatase activity, increasing concentrations (dose-dependent) ([8]; listed as Sclerostin): decreased
basal alkaline phosphatase activity, increasing concentrations (dose-dependent) ([8]; listed as human sclerostin): decreases
